This is an account of results in patent publication US20210009686A1.

The target of test [1] is claudin 18.1 (CLDN18.1) (human) (UniProt P56856). Put plainly: in-cell ELISA on HEK293-CLDN18.1 cells. Background: An ELISA detects its analyte on a solid surface through an enzyme-linked reagent.
The target of test [2] is claudin 18.2 (CLDN18.2) (human). In words: in-cell ELISA on HEK293-CLDN18.2 cells.

claudin 18.1 (CLDN18.1) (human), sequence (P56856 whole entry): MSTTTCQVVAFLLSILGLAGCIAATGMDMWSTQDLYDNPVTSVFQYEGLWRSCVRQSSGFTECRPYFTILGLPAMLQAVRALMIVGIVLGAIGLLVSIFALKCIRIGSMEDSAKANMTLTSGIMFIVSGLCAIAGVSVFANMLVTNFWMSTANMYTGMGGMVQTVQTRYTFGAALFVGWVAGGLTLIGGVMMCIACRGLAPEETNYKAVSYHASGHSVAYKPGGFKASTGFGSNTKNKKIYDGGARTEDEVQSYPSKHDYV

mouse IgG (control) (antibody): the OD450/µg IgG in test [1] came out at 1.54 OD450/µg IgG; in test [2] it was 3.23 OD450/µg IgG.
